Target: the molecule itself
Experiment: crystal structure; hanging drop vapor diffusion, 26% PEG 3350, 50 mM Tris-HCl pH 8.0; space group P212121; one trimer in the asymmetric unit; 1.1 Å

B1: bacteriophage HS1 tail needle knob (domain or fragment)
chain: RISALEYATTRKKSEVVYSGVSVTIPTAPTNLVSLLKTLTPSSGTLAPFFDTVNNKMVVFNENKTLFFKLSIVGTWPSGTANRSMQLTFSGSVPDTLVSSRNSATTTDNILLATFFSVDKDGFLATNGSTLTIQSNGAAFTATTIKIIAEQ
Question: With B1 as the protein, how does the “stoichiometry N” value read?
Answer: The value was 3.
